System: Escherichia coli TOP10
Assay: shrunken log2 fold change of peptide-encoding DNA abundance (4.5 h post-induction vs induction); higher = less antimicrobial activity (less host growth inhibition)
Settings: time post-induction: 4.5 h; library: site-saturation at positions 5, 18, 19, 20
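Also: peptides expressed intracellularly from a pBAD plasmid library in pooled LB shake-flask culture, induced with 0.3% L-arabinose, DNA abundance read by NGS, three biological replicates, DESeq2 with apeglm shrinkage.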

Row | Sequence | shrunken log2 fold change
1 | RRIRCRPPRLPRPRPRPAVVPRP | -0.243
2 | RRIRCRPPRLPRPRPRPAWEPRP | 0.0219
3 | RRIRCRPPRLPRPRPRPAWIPRP | -0.197
4 | RRIRCRPPRLPRPRPRPAYRPRP | -0.194
5 | RRIRCRPPRLPRPRPRPCAGPRP | 0.039
6 | RRIRCRPPRLPRPRPRPCALPRP | -0.213
7 | RRIRCRPPRLPRPRPRPCASPRP | 0.0454
8 | RRIRCRPPRLPRPRPRPCCEPRP | 0.0666
9 | RRIRCRPPRLPRPRPRPCCTPRP | -0.238
10 | RRIRCRPPRLPRPRPRPCDSPRP | -0.042
11 | RRIRCRPPRLPRPRPRPCFAPRP | -0.162
12 | RRIRCRPPRLPRPRPRPCFIPRP | -0.488
13 | RRIRCRPPRLPRPRPRPCGRPRP | -0.184
14 | RRIRCRPPRLPRPRPRPCGVPRP | 0.0257
15 | RRIRCRPPRLPRPRPRPCHCPRP | 0.00562
16 | RRIRCRPPRLPRPRPRPCIFPRP | -0.396
17 | RRIRCRPPRLPRPRPRPCIGPRP | -0.204
18 | RRIRCRPPRLPRPRPRPCKDPRP | -0.142
19 | RRIRCRPPRLPRPRPRPCKLPRP | -0.896
20 | RRIRCRPPRLPRPRPRPCKNPRP | -0.194
21 | RRIRCRPPRLPRPRPRPCKWPRP | -0.208
22 | RRIRCRPPRLPRPRPRPCLDPRP | 0.11
23 | RRIRCRPPRLPRPRPRPCLYPRP | -0.117
24 | RRIRCRPPRLPRPRPRPCNDPRP | -0.173
25 | RRIRCRPPRLPRPRPRPCNPPRP | -0.23

Row | Sequence | shrunken log2 fold change
26 | RRIRCRPPRLPRPRPRPCPLPRP | -0.433
27 | RRIRCRPPRLPRPRPRPCPMPRP | -8.18e-06
28 | RRIRCRPPRLPRPRPRPCPNPRP | -0.14
29 | RRIRCRPPRLPRPRPRPCPRPRP | 0.00856
30 | RRIRCRPPRLPRPRPRPCPTPRP | 0.0528
31 | RRIRCRPPRLPRPRPRPCQVPRP | -0.342
32 | RRIRCRPPRLPRPRPRPCRDPRP | -0.142
33 | RRIRCRPPRLPRPRPRPCSMPRP | -0.0191
34 | RRIRCRPPRLPRPRPRPCTLPRP | -0.107
35 | RRIRCRPPRLPRPRPRPCVYPRP | -0.411
36 | RRIRCRPPRLPRPRPRPCWNPRP | -0.49
37 | RRIRCRPPRLPRPRPRPCYYPRP | -1.31
38 | RRIRCRPPRLPRPRPRPDCGPRP | -0.169
39 | RRIRCRPPRLPRPRPRPDCLPRP | -0.494
40 | RRIRCRPPRLPRPRPRPDCTPRP | -0.232
41 | RRIRCRPPRLPRPRPRPDEFPRP | -0.169
42 | RRIRCRPPRLPRPRPRPDEVPRP | 0.00585
43 | RRIRCRPPRLPRPRPRPDFFPRP | 0.035
44 | RRIRCRPPRLPRPRPRPDGHPRP | -0.00753
45 | RRIRCRPPRLPRPRPRPDGIPRP | -0.0101
46 | RRIRCRPPRLPRPRPRPDHCPRP | 0.00334
47 | RRIRCRPPRLPRPRPRPDHPPRP | 0.264
48 | RRIRCRPPRLPRPRPRPDHVPRP | 0.021
49 | RRIRCRPPRLPRPRPRPDHYPRP | -0.211
50 | RRIRCRPPRLPRPRPRPDIPPRP | -0.331

Row | Sequence | shrunken log2 fold change
51 | RRIRCRPPRLPRPRPRPDKAPRP | -0.0544
52 | RRIRCRPPRLPRPRPRPDMTPRP | -0.00325
53 | RRIRCRPPRLPRPRPRPDNGPRP | -0.0856
54 | RRIRCRPPRLPRPRPRPDQKPRP | 0.0192
55 | RRIRCRPPRLPRPRPRPDQSPRP | 0.112
56 | RRIRCRPPRLPRPRPRPDRLPRP | -0.335
57 | RRIRCRPPRLPRPRPRPDSPPRP | -0.353
58 | RRIRCRPPRLPRPRPRPDSRPRP | 0.0735
59 | RRIRCRPPRLPRPRPRPDVVPRP | -0.00174
60 | RRIRCRPPRLPRPRPRPDWSPRP | 0.0534
61 | RRIRCRPPRLPRPRPRPDYEPRP | -0.373
62 | RRIRCRPPRLPRPRPRPDYSPRP | -0.179
63 | RRIRCRPPRLPRPRPRPDYWPRP | -0.437
64 | RRIRCRPPRLPRPRPRPEAMPRP | 0.536
65 | RRIRCRPPRLPRPRPRPECMPRP | 0.119
66 | RRIRCRPPRLPRPRPRPECSPRP | 0.231
67 | RRIRCRPPRLPRPRPRPEDLPRP | 0.117
68 | RRIRCRPPRLPRPRPRPEDSPRP | 0.00322
69 | RRIRCRPPRLPRPRPRPEEMPRP | 0.028
70 | RRIRCRPPRLPRPRPRPEFIPRP | -0.551
71 | RRIRCRPPRLPRPRPRPEFPPRP | 0.278
72 | RRIRCRPPRLPRPRPRPEFWPRP | 0.163
73 | RRIRCRPPRLPRPRPRPEGCPRP | 3.02
74 | RRIRCRPPRLPRPRPRPEHIPRP | -0.218
75 | RRIRCRPPRLPRPRPRPEHMPRP | -0.201

Row | Sequence | shrunken log2 fold change
76 | RRIRCRPPRLPRPRPRPEKQPRP | -0.0123
77 | RRIRCRPPRLPRPRPRPEMGPRP | 0.0517
78 | RRIRCRPPRLPRPRPRPEMIPRP | 0.12
79 | RRIRCRPPRLPRPRPRPERYPRP | -0.153
80 | RRIRCRPPRLPRPRPRPESIPRP | -0.263
81 | RRIRCRPPRLPRPRPRPESKPRP | 0.198
82 | RRIRCRPPRLPRPRPRPESVPRP | 0.025
83 | RRIRCRPPRLPRPRPRPETDPRP | -0.00874
84 | RRIRCRPPRLPRPRPRPEVCPRP | 0.0143
85 | RRIRCRPPRLPRPRPRPEVHPRP | -0.328
86 | RRIRCRPPRLPRPRPRPEVLPRP | 0.149
87 | RRIRCRPPRLPRPRPRPEVSPRP | 0.282
88 | RRIRCRPPRLPRPRPRPEWHPRP | -0.0462
89 | RRIRCRPPRLPRPRPRPEWQPRP | -0.0271
90 | RRIRCRPPRLPRPRPRPEYCPRP | -0.0902
91 | RRIRCRPPRLPRPRPRPEYNPRP | -0.243
92 | RRIRCRPPRLPRPRPRPFANPRP | -0.29
93 | RRIRCRPPRLPRPRPRPFCDPRP | -0.501
94 | RRIRCRPPRLPRPRPRPFDYPRP | 0.0472
95 | RRIRCRPPRLPRPRPRPFESPRP | 0.0262
96 | RRIRCRPPRLPRPRPRPFHDPRP | -0.727
97 | RRIRCRPPRLPRPRPRPFHLPRP | -1.11
98 | RRIRCRPPRLPRPRPRPFIHPRP | -1.43
99 | RRIRCRPPRLPRPRPRPFMPPRP | -0.402
100 | RRIRCRPPRLPRPRPRPFNEPRP | -0.799

Row | Sequence | shrunken log2 fold change
101 | RRIRCRPPRLPRPRPRPFNQPRP | -0.421
102 | RRIRCRPPRLPRPRPRPFPKPRP | 0.131
103 | RRIRCRPPRLPRPRPRPFPYPRP | -0.645
104 | RRIRCRPPRLPRPRPRPFQKPRP | 0.0129
105 | RRIRCRPPRLPRPRPRPFQLPRP | -1.02
106 | RRIRCRPPRLPRPRPRPFSEPRP | -0.929
107 | RRIRCRPPRLPRPRPRPFSFPRP | -0.513
108 | RRIRCRPPRLPRPRPRPFSLPRP | -0.239
109 | RRIRCRPPRLPRPRPRPFSRPRP | -0.332
110 | RRIRCRPPRLPRPRPRPFTCPRP | -0.223
111 | RRIRCRPPRLPRPRPRPFTKPRP | -0.628
112 | RRIRCRPPRLPRPRPRPFVCPRP | -0.242
113 | RRIRCRPPRLPRPRPRPFWEPRP | -0.0195
114 | RRIRCRPPRLPRPRPRPFYCPRP | -0.645
115 | RRIRCRPPRLPRPRPRPGAFPRP | 0.138
116 | RRIRCRPPRLPRPRPRPGARPRP | 0.394
117 | RRIRCRPPRLPRPRPRPGASPRP | 0.519
118 | RRIRCRPPRLPRPRPRPGDSPRP | -0.0113
119 | RRIRCRPPRLPRPRPRPGEFPRP | -0.179
120 | RRIRCRPPRLPRPRPRPGEMPRP | 0.438
121 | RRIRCRPPRLPRPRPRPGFHPRP | -0.435
122 | RRIRCRPPRLPRPRPRPGFPPRP | 0.134
123 | RRIRCRPPRLPRPRPRPGGEPRP | 0.538
124 | RRIRCRPPRLPRPRPRPGGNPRP | -0.0575
125 | RRIRCRPPRLPRPRPRPGHPPRP | 0.00689

Row | Sequence | shrunken log2 fold change
126 | RRIRCRPPRLPRPRPRPGKGPRP | -0.025
127 | RRIRCRPPRLPRPRPRPGKYPRP | -0.316
128 | RRIRCRPPRLPRPRPRPGLHPRP | -0.131
129 | RRIRCRPPRLPRPRPRPGLIPRP | 4.01e-05
130 | RRIRCRPPRLPRPRPRPGMEPRP | 0.183
131 | RRIRCRPPRLPRPRPRPGMIPRP | -0.0447
132 | RRIRCRPPRLPRPRPRPGMWPRP | 0.211
133 | RRIRCRPPRLPRPRPRPGNIPRP | -0.198
134 | RRIRCRPPRLPRPRPRPGPGPRP | 0.709
135 | RRIRCRPPRLPRPRPRPGPQPRP | 0.117
136 | RRIRCRPPRLPRPRPRPGQMPRP | -0.147
137 | RRIRCRPPRLPRPRPRPGQVPRP | 0.0846
138 | RRIRCRPPRLPRPRPRPGQYPRP | -0.479
139 | RRIRCRPPRLPRPRPRPGRHPRP | 0.105
140 | RRIRCRPPRLPRPRPRPGSEPRP | 0.286
141 | RRIRCRPPRLPRPRPRPGWFPRP | 0.0546
142 | RRIRCRPPRLPRPRPRPGWIPRP | 0.198
143 | RRIRCRPPRLPRPRPRPGWNPRP | -0.243
144 | RRIRCRPPRLPRPRPRPGYHPRP | -0.997
145 | RRIRCRPPRLPRPRPRPGYRPRP | -0.682
146 | RRIRCRPPRLPRPRPRPHAAPRP | 0.31
147 | RRIRCRPPRLPRPRPRPHAMPRP | -0.145
148 | RRIRCRPPRLPRPRPRPHAPPRP | 0.0482
149 | RRIRCRPPRLPRPRPRPHDYPRP | -0.482
150 | RRIRCRPPRLPRPRPRPHEAPRP | -0.65
